Assay results as given in US20250188457A1, “COMPOSITIONS AND METHODS FOR THE TREATMENT OF GLIOBLASTOMA BY INHIBITION OF THE TFPI2-CD51-STAT6 SIGNALING AXIS” (Northwestern University, priority 2023, published 2025).

How the values were obtained:
GSC23 and GSC262 cells = assay: Tumorsphere formation assay (GSC self-renewal); type: cell-based, human; conditions: GSC262 and GSC23; indicated concentrations
Experimental: The tumorsphere formation assay was performed (Ref. 79; incorporated by reference in its entirety). GSCs were treated with different concentrations of recombinant TFPI2 protein for 24 hrs with or without inhibition of JNK or STAT3, or modified with TFPI21 KO, knockdown or overexpression. After treatment or genetic modifications, cells were centrifuged at 1500 rpm for 5 min and resuspended in the plain cell culture media without additional supplements. Cells were then seeded into a 96-wells plate at 100 cells/well. The number of tumorspheres in each well was imaged and quantified after 10 days.

STAT6 = assay: Immunoblot and flow cytometry for P-STAT6 in microglia; type: cell-based, human and mouse; conditions: TFPI2 recombinant protein, indicated concentrations and time points
Experimental: (§1) The protein expression in cells was determined by western blotting analysis (Ref. 61; incorporated by reference in its entirety). Cells were homogenized in RIPA lysis buffer containing phosphatase/protease cocktail inhibitors (Cell Signaling Technology, #5870). The protein concentration was determined by BCA Protein Assay Kit (Thermo Fisher Scientific, #P123225). Protein solution was mixed with the Leammli sample buffer and heated at 95° C. before loading to SurePAGE gels (GenScript, #M00653). The gels were run at a constant voltage of 80 V and then transferred to 0.2 μm nitrocellulose membrane (Bio-Rad, #1620112) using the Trans-Blot Turbo system (Bio-Rad) with a preprogrammed standard protocol for 30 min. Nitrocellulose membrane was incubated with 5% dry milk to block any unspecific staining. […]

[1] = tested on: GSC262, GSC23 and GSC20 cells; assay: Immunoblot for CD133 and SOX2 in GSCs; type: cell-based, human; conditions: TFPI2 recombinant protein at indicated concentrations for 24 hrs
Experimental: as §1

CD51 = assay: Co-immunoprecipitation of TFPI2 and CD51 in microglia; type: binding, human and mouse; conditions: SIM-A9 and HMC3 microglia treated with 20 ng/ml TFPI2 recombinant protein for 1 hr; anti-CD51 or anti-TFPI2 antibody
Experimental: Co-IP was performed using Invitrogen™ Dynabeads™ Protein G Immunoprecipitation Kit (Thermo Fisher Scientific, #10007D). Briefly, human or mouse microglia were treated with 20 ng/ml TFPI2 recombinant protein for 1 hr. RIPA lysis buffer was then used to extract protein after washing with PBS. Magnetic beads (1.5 mg) were separated from the solution using a magnetic stand. […] TFPI2 antibody (Abcam, #ab186747), CD51 antibody (Cell Signaling Technology, #4711S), or rabbit IgG (isotype control, Cell Signaling Technology, #2729) was prepared in […] of antibody binding and washing Buffer. Antibody or IgG was incubated with magnetic beads for 10 min at room temperature with rotation. After removing the supernatant, antibody/IgG-conjugated magnetic beads were incubated with cell lysis buffer for 2 hrs at room temperature with rotation to immunoprecipitate TFPI2- or CD51-interacting antigens. The magnetic bead-antibody-antigen complex was washed three times using […] washing buffer and then eluted with the elution buffer. The complex was loaded into 4-12% SurePAGE gels to evaluate target protein expression after Co-IP.

B1: TFPI2 recombinant protein (tissue factor pathway inhibitor 2; BioVision, #7481-10) (ligand, UniProt P48307 23-235, looked up)
chain: DAAQEPTGNNAEICLLPLDYGPCRALLLRYYYDRYTQSCRQFLYGGCEGNANNFYTWEACDDACWRIEKVPKVCRLQVSVDDQCEGSTEKYFFNLSSMTCEKFFSGGCHRNRIENRFPDEATCMGFCAPKKIPSFCYSPKDEGLCSANVTRYYFNPRYRTCDAFTYTGCGGNDNNFVSREDCKRACAKALKKKKKMPKLRFASRIRKIRKKQF
notes: Bought recombinant protein added to microglia at 20 ng/ml; also called recombinant TFPI2; secreted TFPI2
GSC23 and GSC262 cells
  GSC self-renewal (tumorspheres) upon TFPI2 recombinant protein: Enhanced
STAT6
  phosphorylation of STAT6 in human and mouse microglia: increased
[1]
  expression of stemness-associated factors CD133 and SOX2: increased
CD51
  interaction between CD51 and TFPI2: confirmed
